Source: publication doi:10.1101/2025.09.02.673761 (bioRxiv, 2025)

Molecular target: GFP-tagged holo-CPC (Chromosomal Passenger Complex: INCENP, GFP-Aurora B, Borealin, Survivin) (human, UniProt Q9NQS7;Q96GD4;Q53HL2;O15392)
Assay: pull-down

GFP-tagged holo-CPC (Chromosomal Passenger Complex: INCENP, GFP-Aurora B, Borealin, Survivin), sequence (Q9NQS7 whole entry, chain 1 of 4): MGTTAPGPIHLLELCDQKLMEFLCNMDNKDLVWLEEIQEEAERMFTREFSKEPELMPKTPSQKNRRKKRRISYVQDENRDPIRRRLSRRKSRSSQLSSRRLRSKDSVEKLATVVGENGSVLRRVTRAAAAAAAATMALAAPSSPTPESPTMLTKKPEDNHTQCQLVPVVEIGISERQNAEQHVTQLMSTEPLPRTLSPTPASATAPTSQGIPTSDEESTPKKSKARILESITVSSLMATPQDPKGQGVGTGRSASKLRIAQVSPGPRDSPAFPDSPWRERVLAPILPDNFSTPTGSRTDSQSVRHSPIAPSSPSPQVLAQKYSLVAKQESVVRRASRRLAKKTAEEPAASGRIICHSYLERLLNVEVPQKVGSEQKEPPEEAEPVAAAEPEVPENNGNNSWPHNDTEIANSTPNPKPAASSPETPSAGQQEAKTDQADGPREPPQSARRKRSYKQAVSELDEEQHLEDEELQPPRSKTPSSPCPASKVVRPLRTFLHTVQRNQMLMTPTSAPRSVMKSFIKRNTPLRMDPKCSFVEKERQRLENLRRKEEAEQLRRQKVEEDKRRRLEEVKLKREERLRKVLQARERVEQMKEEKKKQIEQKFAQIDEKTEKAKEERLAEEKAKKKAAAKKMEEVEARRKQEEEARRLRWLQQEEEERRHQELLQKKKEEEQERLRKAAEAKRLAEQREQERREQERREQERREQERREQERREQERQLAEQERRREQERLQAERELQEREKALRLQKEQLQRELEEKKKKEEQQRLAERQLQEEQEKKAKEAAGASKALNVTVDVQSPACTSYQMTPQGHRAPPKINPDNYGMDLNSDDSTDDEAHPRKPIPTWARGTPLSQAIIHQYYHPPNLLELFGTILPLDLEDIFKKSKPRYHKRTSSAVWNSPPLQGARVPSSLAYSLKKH
GFP-tagged holo-CPC (Chromosomal Passenger Complex: INCENP, GFP-Aurora B, Borealin, Survivin), sequence (Q96GD4 whole entry, chain 2 of 4): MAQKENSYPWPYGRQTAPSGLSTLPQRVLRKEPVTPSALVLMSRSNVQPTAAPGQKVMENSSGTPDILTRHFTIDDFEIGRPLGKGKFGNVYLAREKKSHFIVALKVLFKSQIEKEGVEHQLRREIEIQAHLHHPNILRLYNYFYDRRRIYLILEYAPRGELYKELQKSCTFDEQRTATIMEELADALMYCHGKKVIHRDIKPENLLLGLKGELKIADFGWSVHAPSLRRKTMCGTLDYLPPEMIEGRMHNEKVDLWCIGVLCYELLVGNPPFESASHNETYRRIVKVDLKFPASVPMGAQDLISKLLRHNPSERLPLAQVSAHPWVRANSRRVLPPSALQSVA
GFP-tagged holo-CPC (Chromosomal Passenger Complex: INCENP, GFP-Aurora B, Borealin, Survivin), sequence (Q53HL2 whole entry, chain 3 of 4): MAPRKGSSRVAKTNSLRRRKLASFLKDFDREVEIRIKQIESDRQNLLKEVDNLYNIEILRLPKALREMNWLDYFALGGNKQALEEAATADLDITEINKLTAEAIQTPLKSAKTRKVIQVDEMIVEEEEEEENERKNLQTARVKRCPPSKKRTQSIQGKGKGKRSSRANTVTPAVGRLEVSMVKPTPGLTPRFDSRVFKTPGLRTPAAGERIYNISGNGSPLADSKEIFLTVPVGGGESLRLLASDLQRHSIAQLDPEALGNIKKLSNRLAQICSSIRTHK
GFP-tagged holo-CPC (Chromosomal Passenger Complex: INCENP, GFP-Aurora B, Borealin, Survivin), sequence (O15392 whole entry, chain 4 of 4): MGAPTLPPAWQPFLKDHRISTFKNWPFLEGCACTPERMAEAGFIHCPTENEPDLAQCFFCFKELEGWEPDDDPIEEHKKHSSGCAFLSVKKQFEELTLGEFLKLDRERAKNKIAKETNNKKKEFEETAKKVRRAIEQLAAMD

B1: KIF20A (kinesin-6 motor), unlabeled (natural protein)
chain: MSQGILSPPAGLLSDDDVVVSPMFESTAADLGSVVRKNLLSDCSVVSTSLEDKQQVPSEDSMEKVKVYLRVRPLLPSELERQEDQGCVRIENVETLVLQAPKDSFALKSNERGIGQATHRFTFSQIFGPEVGQASFFNLTVKEMVKDVLKGQNWLIYTYGVTNSGKTHTIQGTIKDGGILPRSLALIFNSLQGQLHPTPDLKPLLSNEVIWLDSKQIRQEEMKKLSLLNGGLQEEELSTSLKRSVYIESRIGTSTSFDSGIAGLSSISQCTSSSQLDETSHRWAQPDTAPLPVPANIRFSIWISFFEIYNELLYDLLEPPSQQRKRQTLRLCEDQNGNPYVKDLNWIHVQDAEEAWKLLKVGRKNQSFASTHLNQNSSRSHSIFSIRILHLQGEGDIVPKISELSLCDLAGSERCKDQKSGERLKEAGNINTSLHTLGRCIAALRQNQQNRSKQNLVPFRDSKLTRVFQGFFTGRGRSCMIVNVNPCASTYDETLHVAKFSAIASQLVHAPPMQLGFPSLHSFIKEHSLQVSPSLEKGAKADTGLDDDIENEADISMYGKEELLQVVEAMKTLLLKERQEKLQLEMHLRDEICNEMVEQMQQREQWCSEHLDTQKELLEEMYEEKLNILKESLTSFYQEEIQERDEKIEELEALLQEARQQSVAHQQSGSELALRRSQRLAASASTQQLQEVKAKLQQCKAELNSTTEELHKYQKMLEPPPSAKPFTIDVDKKLEEGQKNIRLLRTELQKLGESLQSAERACCHSTGAGKLRQALTTCDDILIKQDQTLAELQNNMVLVKLDLRKKAACIAEQYHTVLKLQGQVSAKKRLGTNQENQQPNQQPPGKKPFLRNLLPRTPTCQSSTDCSPYARILRSRRSPLLKSGPFGKKY
- binding result: binds
